Test results: US5854005A, “Platelet blockade assay” (Mount Sinai School of Medicine, priority 1996, dated 1998)
Several values for one entry are separate records, joined by “and”; a condition that tells them apart may be missing. Identical values can stand only once. Blank lines part the entries; values can stand above or below the compound they belong to.

Tests used:
[1] = biological target: T1, GPIIb/IIIa receptor (Homo sapiens, UniProt P05106+P08514); test: Fibrinogen-coated bead agglutination whole blood assay with activating peptide; assay type: cell-based; design: key to agglutination assay result: the assay remained positive (i.e., 1-4+); The assay became negative (i.e., O+); conditions: for agglutination assay result: 2 μM activating peptide
T1 construct: GP IIb/IIIa receptor proteins, which are found on the cell surface of platelets; endogenous in cells; host or cells: platelets in citrated whole blood of donors
Experimental: Blood (9 volumes) is drawn from a patient by syringe and placed into standard blue-top tube containing sodium citrate (1 volume of 3.8% sodium citrate). Alternatively, blood may be drawn by Vacutainer directly into a blue-top tube. The tube is then inverted to mix the anticoagulant with the whole blood. Then 70 μl of this mixture is added to an assay tube containing 100 μl of buffer (0.15M NaCl, 0.5 mM CaCl2, 0.01M HEPES, pH 7.4), 10 μl of well-mixed fibrinogen coated beads prepared by the method of Example 1, and 5-10 µl of isoSer-Phe-Leu-Leu-Arg-Asn (SEQ ID NO:3).
The assay tube is then placed on a rocker and rocked at 20 cpm at room temperature for two minutes. The tube is removed from the rocker, held vertically to allow the blood to drain and viewed. If less than 80% of GPIIb/IIIa receptor blockade has been achieved in the patient's blood, agglutinated beads are readily seen in the streak marking where the blood tilted back and forth.
(§1) Purified peak I-2 fibrinogen is coupled to 3 μm, blue carboxylated beads (obtained from Polysciences, Inc.) using a water soluble carbodiimide (EDC) by the method of Example 1. The assay is conducted by adding to a 12×75 mm glass test tube: 100 μl of buffer, 20 μl of beads (2.5% slurry), and 5 μl of isoSer-Phe-Leu-Leu-Arg-Asn. Blood is collected into citrate anticoagulant and 70 μl of the whole blood is added to the test tube, which is then capped, placed on a rocking platform, and rocked at 16 cycles/min. When normal blood was tested using 1 or 2 μM activating peptide, a 4+ agglutination endpoint was easily observed in all donors (n=10) by 2 min. […] Using 2 μM activating peptide, the assay remained positive (i.e., 1-4+) at c7E3 Fab concentrations of 0.8 (n=1), 1.2 (n=1), 1.5 (n=3), and 1.8 (n=2) μg/ml, corresponding to GPIIb/IIIa receptor blockade of 56%; 77%; 68, 68, and 82%; and 66 and 73%. The assay became negative (i.e., O+) at c7E3 Fab concentrations of 1.2 (n=1), 1.5 (n=1), 1.8 (n=3) and 2.4 (n=2) μg/ml, corresponding to GPIIb/IIIa receptor blockade of 77%; 92%; 83, 88 and 94%; and 88 and 89%. […] The percentage of receptor blockade was assayed by radiolabeled 7E3 binding as reported in Coller et al., N.Y. Acad. Sci., 614:193 (1993).

[2] = tested on: aminopeptidase M; conditions: in the presence of aminopeptidase M; cited from earlier work
[3] = tested on: thrombin receptor; conditions: cited from earlier work
[4] = tested on: aminopeptidase M; conditions: incubated in plasma; cited from earlier work
[5] = biological target: T1, GPIIb/IIIa receptor; test: GPIIb/IIIa receptor blockade assayed by radiolabeled 7E3 binding
Experimental: as §1

[6] = biological target: T1, GPIIb/IIIa receptor; conditions: cited from earlier work
[7] = blood pretreated with c7E3 Fab at 5 doses between 0.8-3.0 μg/ml for about 10 minutes at 22° C.

Compound: CC(=O)Oc1ccccc1C(=O)O [Aspirin, reference compound]
- effect on the agglutination assay results ([1]; Aspirin 1 mM): did not appreciably affect the results

Compound: CC(C)C[C@@H](N)[C@H](O)C(=O)N[C@H](C(=O)N[C@H](C(=O)N[C@@H](CC(=O)O)C(=O)O)C(C)C)C(C)C [amastatin]
- effect on platelet aggregation [2]: enhance platelet aggregation

Compound: T-11: eleven amino acid peptide lacking the three C-terminal amino acids of T-14 (SFLLRNPNDKY)
- platelet activation activity relative to T-6 [3]: ~ 20%
- potency relative to T-14 [3]: twice as potent as T-14
- ability to induce aggregation after incubation in plasma [4]: lose their ability to induce aggregation

Compound: T-14: fourteen amino acid peptide corresponding to the new N-terminus of the cleaved thrombin receptor protein (SFLLRNPNDKYEPF)
- platelet aggregating activity [3]: capable of aggregating platelets directly
- ability to induce aggregation after incubation in plasma [4]: lose their ability to induce aggregation

- agglutination assay result ([1]; c7E3 Fab 0.8 μg/ml): positive
- agglutination assay result ([1]; c7E3 Fab 2.4 μg/ml): negative
- agglutination of beads [1, 7]: elimination of agglutination
- GPIIb/IIIa receptor blockade (trend) [5, 7]: increasing GPIIb/IIIa receptor blockade
- GPIIb/IIIa receptor blockade ([5]; c7E3 Fab 0.8 μg/ml, samples with positive agglutination assay): 56%
- GPIIb/IIIa receptor blockade ([5]; c7E3 Fab 1.2 μg/ml, samples with negative agglutination assay): 77%
- GPIIb/IIIa receptor blockade ([5]; c7E3 Fab 1.2 μg/ml, samples with positive agglutination assay): 77%
- GPIIb/IIIa receptor blockade ([5]; c7E3 Fab 1.5 μg/ml, samples with negative agglutination assay): 92%
- GPIIb/IIIa receptor blockade ([5]; c7E3 Fab 1.5 μg/ml, samples with positive agglutination assay): 68% and 82%
- GPIIb/IIIa receptor blockade ([5]; c7E3 Fab 1.8 μg/ml, samples with negative agglutination assay): 83% and 88% and 94%
- GPIIb/IIIa receptor blockade ([5]; c7E3 Fab 1.8 μg/ml, samples with positive agglutination assay): 66% and 73%
- GPIIb/IIIa receptor blockade ([5]; c7E3 Fab 2.4 μg/ml, samples with negative agglutination assay): 88% and 89%
Compound: c7E3 Fab: GPIIb/IIIa receptor blocking agent, monoclonal antibody c7E3 Fab
- bleeding times ([6]; blockade of about 80% or more of GPIIb/IIIa receptors, often to times greater than thirty minutes): prolongs the bleeding times
- platelet aggregation ([6]; blockade of about 80% or more of an individual's GPIIb/IIIa receptors): abolishes platelet aggregation
- antithrombotic effect ([6]; patient with a platelet count greater than 900,000/μl, standard dose): virtually no antithrombotic effect

- effect on the agglutination assay results ([1]; heparin 3.5 U/ml): did not appreciably affect the results
Compound: heparin [reference compound]
